1 substance from article PMC8336959 can be followed below.

Broadly, the Kd is the concentration at which binding is half-saturated. Higher therefore signals a looser complex.

This assay has as its target Atto488-labeled GRB2-SH2 domain (UniProt P62993). Nature of the assay: MST.

Chain of Atto488-labeled GRB2-SH2 domain (P62993 60-152): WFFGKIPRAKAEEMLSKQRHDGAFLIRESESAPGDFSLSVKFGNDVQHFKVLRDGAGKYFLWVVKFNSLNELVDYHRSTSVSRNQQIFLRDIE

Turning to “Dual-phosphorylated H2AX (pH2AX) peptide”, the Kd turned out to be 2.8 µM.
